Legend:
[1] = molecular target: T1, hu-IL-36β (human IL-36β, N-terminally truncated active form R5-E157) (human); assay: cell-based or functional assay
T1 chain: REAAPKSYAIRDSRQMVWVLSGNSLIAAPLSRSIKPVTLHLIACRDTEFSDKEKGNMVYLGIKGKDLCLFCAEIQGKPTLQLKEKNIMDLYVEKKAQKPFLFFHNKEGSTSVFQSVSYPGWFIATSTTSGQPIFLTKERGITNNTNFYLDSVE

[2] = molecular target: T1, hu-IL-36β (human IL-36β, N-terminally …); assay: SPR (Biacore 8K), IgG captured on protein A chip, 37°C
Procedure: (§1) FC1 was kept as a reference. Next, 3-fold serial dilutions of hu-IL-36β in HBS-P buffer from low (0.046 nM of hu-IL-36β) to high (100 nM of hu-IL-36β) were injected (flow rate: 30 μL/min) at either 37° C. The sensorgram was recorded and subject to reference and buffer subtraction before data analysis with the BIACORE® 8K Evaluation Software (GE Healthcare, Chicago, Ill., USA; version 1.1.1.7442). Association rates (kₒₙ) and dissociation rates (koff) were calculated using a simple one-to-one Langmuir binding model. The equilibrium dissociation constant (KD) was calculated as the ratio of koff/kₒₙ.

[3] = molecular target: T1, hu-IL-36β (human IL-36β, N-terminally …); assay: SPR (Biacore 8K), IgG captured on protein A chip, hu-IL-36β injected, 37°C
Procedure: as §1

- IC50, hu-IL-36β-stimulated IL-8 secretion by HaCat cells [1]: 12.7 nM
- fold decrease in potency relative to mAb6.0 IgG, HaCat IL-8 assay [1]: 16 fold
- fold lower affinity than mAb6.0 [2]: 16 fold
- Kd [3]: 6.7 nM
- koff [3]: 0.00214 s⁻¹
- kon [3]: 320000 M⁻¹ s⁻¹
B1: mAb6.0_2.0 IgG (mAb6.0 HC/mAb2.0 LC chimera) (antibody, V domains shown)
VH: QLQLQESGPGLVKPSETLSLTCTVSGGSITSSNYYWGWIRQPPGKGLEWIGSIDYTGSTYYNPSLKSRVTISVDTSKNQFSLKLSSVTAADTAVYYCARGKYYETYLGFDVWGQGTLVTVSS
VL: QSVLTQPPSVSGAPGQRVTISCTGSSSNIGAHYDVHWYQQLPGTAPKLLIYGNDNRPSGVPDRFSGSKSGTSASLAITGLQAEDEADYYCQSYDYSLSGYVFGGGTKLTVLG

— patent publication US20230235040A1 (ALMIRALL S A, published 2023)
